We go through one substance from patent publication US20160122431A1.

For the test, the target named is murine B7-DC (murine) (UniProt Q9WUL5). The test can be described thus: flow cytometry; murine bone marrow derived DC incubated with or without soluble PD-1.Ig, then stained with sHIgM12 (the competitor read out). A general note: In flow cytometry, cells or beads pass a laser one at a time.
Chain of murine B7-DC (murine) (Q9WUL5 20-247): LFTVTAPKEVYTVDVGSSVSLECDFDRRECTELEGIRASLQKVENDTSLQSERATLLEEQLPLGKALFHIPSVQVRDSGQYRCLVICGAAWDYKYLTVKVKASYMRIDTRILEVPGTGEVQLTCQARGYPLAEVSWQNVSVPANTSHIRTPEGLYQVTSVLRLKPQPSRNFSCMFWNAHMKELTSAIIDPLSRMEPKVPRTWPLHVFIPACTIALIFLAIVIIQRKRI

Chain of PD-1.Ig fusion protein (Fc fusion) (Q02242 25-169): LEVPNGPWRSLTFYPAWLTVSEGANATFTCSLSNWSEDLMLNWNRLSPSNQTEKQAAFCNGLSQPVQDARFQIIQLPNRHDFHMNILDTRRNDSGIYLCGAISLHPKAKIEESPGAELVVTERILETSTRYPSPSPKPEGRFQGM

The substance PD-1.Ig fusion protein (Fc fusion) displayed a sHIgM12 staining left, percent of the level in the absence of PD-1 of 50%.
